This note sets out measurements from publication PMC6875872 (The Journal of Physical Chemistry. B, 2019).

This series deals with the molecule itself. In words: SEC + other: DLS + other: TEM.

B1: cowpea chlorotic mottle virus (CCMV) capsid protein (natural protein, UniProt P03601 1-190, looked up)
chain: MSTVGTGKLTRAQRRAAARKNKRNTRVVQPVIVEPIASGQGKAIKAWTGYSVSKWTASCAAAEAKVTSAITISLPNELSSERNKQLKVGRVLLWLGLLPSVSGTVKSCVTETQTTAAASFQVALAVADNSKDVVAAMYPEAFKGITLEQLTADLTIYLYSSAALTEGDVIVHLEVEHVRPTFDDSFTPVY
By stoichiometry N is commonly meant a count of units in the complex or per binding partner. On to B1, for which the “stoichiometry N” value stood at 60.
